Results: patent publication US10702592B2, “Peptides and combination of peptides for use in immunotherapy against NHL and other cancers” (Immatics Biotechnologies GmbH, priority 2016, dated 2020)

molecular target: HLA-A*02:01 (Homo sapiens, UniProt P04439, D140Y/D185E/D98H/E176V/E277Q/G131W/G231S/I119V/I121R/I166T/I218V/L300P/L318F/N151K/N90K/P208A/P217A/Q86G/Q94H/R138H/R169H/T345S); assay: MHC binding assay (UV-ligand exchange, beta2m ELISA); conditions: binding to HLA-A*02:01, UV-ligand exchange
Method in brief: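 UV-exchange pMHC monomers, 100-fold diluted → streptavidin capture 1 h 37 °C → HRP anti-β2m 2 ug/ml 1 h 37 °C → TMB, A450. Yield from HLA-A*02:01/MLA-001 monomer standard curve, 15-500 ng/ml. Only stably bound peptides keep β2m-containing complexes intact.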

Row | Substance | Peptide exchange (MHC class I binding score, peptide exchange yield)
1 | 1 (LLSGQLPTI; listed as Homo sapiens) [compound 1] | “+++” (≥50 = +++)
2 | 2 (LLSEETPSA; listed as Homo sapiens) [compound 2] | “+++” (≥50 = +++)
3 | 3 (LTIDTQYYL; listed as Homo sapiens) [compound 3] | “+++” (≥50 = +++)
4 | 5 (VLQGLTFTL; listed as Homo sapiens) [compound 5] | “+++” (≥50 = +++)
5 | 276 (NMISYVVHL; listed as Homo sapiens) [compound 276] | “++” (≥20% = ++)
6 | 277 (FLIDLNSTHGTFL; listed as Homo sapiens) [compound 277] | “+++” (≥50 = +++)
7 | 278 (FLLFINHRL; listed as Homo sapiens) [compound 278] | “+++” (≥50 = +++)
8 | 279 (NLAGENILNPL; listed as Homo sapiens) [compound 279] | “+++” (≥50 = +++)
9 | 280 (SLLNHLPYL; listed as Homo sapiens) [compound 280] | “++++” (≥75% = ++++)
10 | 281 (TLQTVPLTTV; listed as Homo sapiens) [compound 281] | “++++” (≥75% = ++++)
11 | 282 (YLLEQGAQV; listed as Homo sapiens) [compound 282] | “++++” (≥75% = ++++)
12 | 283 (ALMPVTPQA; listed as Homo sapiens) [compound 283] | “+++” (≥50 = +++)
13 | 284 (KLQEQIHRV; listed as Homo sapiens) [compound 284] | “+++” (≥50 = +++)
14 | 285 (SITAVTPLL; listed as Homo sapiens) [compound 285] | “+++” (≥50 = +++)
15 | 286 (HLTEDTPKV; listed as Homo sapiens) [compound 286] | “+++” (≥50 = +++)
16 | 287 (ILMGHSLYM; listed as Homo sapiens) [compound 287] | “++++” (≥75% = ++++)
17 | 288 (RLAPEIVSA; listed as Homo sapiens) [compound 288] | “+++” (≥50 = +++)
18 | 289 (SLLAANNLL; listed as Homo sapiens) [compound 289] | “++++” (≥75% = ++++)
19 | 290 (IASPVIAAV; listed as Homo sapiens) [compound 290] | “+++” (≥50 = +++)
20 | 291 (KIIDTAGLSEA; listed as Homo sapiens) [compound 291] | “+++” (≥50 = +++)
21 | 292 (KLINSQISL; listed as Homo sapiens) [compound 292] | “+++” (≥50 = +++)

Row | Substance | Peptide exchange (MHC class I binding score, peptide exchange yield)
22 | 293 (GLAMVEAISYV; listed as Homo sapiens) [compound 293] | “++++” (≥75% = ++++)
23 | 294 (KLYGPEGLELV; listed as Homo sapiens) [compound 294] | “++++” (≥75% = ++++)
24 | 295 (SLAAVSQQL; listed as Homo sapiens) [compound 295] | “+++” (≥50 = +++)
25 | 296 (FILEPLYKI; listed as Homo sapiens) [compound 296] | “++++” (≥75% = ++++)
26 | 297 (ILQNGLETL; listed as Homo sapiens) [compound 297] | “+++” (≥50 = +++)
27 | 298 (ALTDVILCV; listed as Homo sapiens) [compound 298] | “++++” (≥75% = ++++)
28 | 299 (RLLEEEGVSL; listed as Homo sapiens) [compound 299] | “+++” (≥50 = +++)
29 | 300 (IVLERNPEL; listed as Homo sapiens) [compound 300] | “+++” (≥50 = +++)
30 | 301 (LQFDGIHVV; listed as Homo sapiens) [compound 301] | “+++” (≥50 = +++)
31 | 302 (SLAELDEKISA; listed as Homo sapiens) [compound 302] | “+++” (≥50 = +++)
32 | 303 (FVWEASHYL; listed as Homo sapiens) [compound 303] | “++++” (≥75% = ++++)
33 | 304 (ALIRLDDLFL; listed as Homo sapiens) [compound 304] | “+++” (≥50 = +++)
34 | 305 (AMLAQQMQL; listed as Homo sapiens) [compound 305] | “+++” (≥50 = +++)
35 | 306 (AQVALVNEV; listed as Homo sapiens) [compound 306] | “+++” (≥50 = +++)
36 | 307 (FLLPVAVKL; listed as Homo sapiens) [compound 307] | “+++” (≥50 = +++)
37 | 308 (SLLDQIPEM; listed as Homo sapiens) [compound 308] | “+++” (≥50 = +++)
38 | 309 (SLSFVSPSL; listed as Homo sapiens) [compound 309] | “+++” (≥50 = +++)
39 | 310 (VMAEAPPGV; listed as Homo sapiens) [compound 310] | “+++” (≥50 = +++)
40 | 311 (YLHRQVAAV; listed as Homo sapiens) [compound 311] | “+++” (≥50 = +++)
41 | 314 (LIDDKGTIKL; listed as Homo sapiens) [compound 314] | “++” (≥20% = ++)

tested on: CD8+ T cells; assay: In vitro T-cell priming immunogenicity assay (aAPC with pMHC and anti-CD28, multimer staining); type: cell-based, human; conditions: CD8+ T cells of healthy HLA-A*02 donors, three stimulation cycles, multimer readout
Source text: In order to obtain information regarding the immunogenicity of the TUMAPs of the present invention, the inventors performed investigations using an in vitro T-cell priming assay based on repeated stimulations of CD8+ T cells with artificial antigen presenting cells (aAPCs) loaded with peptide/MHC complexes and anti-CD28 antibody.
In order to perform in vitro stimulations by artificial antigen presenting cells loaded with peptide-MHC complex (pMHC) and anti-CD28 antibody, the inventors first isolated CD8+ T cells from fresh HLA-A*02 leukapheresis products via positive selection using CD8 microbeads (Miltenyi Biotec, Bergisch-Gladbach, Germany) of healthy donors obtained from the University clinics Mannheim, Germany, after informed consent.
PBMCs and isolated CD8+ lymphocytes were incubated in T-cell medium (TCM) until use consisting of RPMI-Glutamax (Invitrogen, Karlsruhe, Germany) supplemented with 10% heat inactivated human AB serum (PAN-Biotech, Aidenbach, Germany), 100 U/ml Penicillin/100 μg/ml Streptomycin (Cambrex, Cologne, Germany), 1 mM sodium pyruvate (CC Pro, Oberdorla, Germany), 20 μg/ml Gentamycin (Cambrex). 2.5 ng/ml IL-7 (PromoCell, Heidelberg, Germany) and 10 U/ml IL-2 (Novartis Pharma, Nurnberg, Germany) were also added to the TCM at this step.
Generation of pMHC/anti-CD28 coated beads, T-cell stimulations and readout was performed in a highly defined in vitro system using four different pMHC molecules per stimulation condition and 8 different pMHC molecules per readout condition.
The purified co-stimulatory mouse IgG2a anti human CD28 Ab 9.3 (Jung et al., 1987) was chemically biotinylated using Sulfo-N-hydroxysuccinimidobiotin as recommended by the manufacturer (Perbio, Bonn, Germany). Beads used were 5.6 μm diameter streptavidin coated polystyrene particles (Bangs Laboratories, Illinois, USA).
800.000 beads/200 μl were coated in 96-well plates in the presence of 4×12.5 ng different biotin-pMHC, washed and 600 ng biotin anti-CD28 were added subsequently in a volume of 200 μl. Stimulations were initiated in 96-well plates by co-incubating 1×10^6 CD8+ T cells with 2×10^5 washed coated beads in 200 μl TCM supplemented with 5 ng/ml IL-12 (PromoCell) for 3 days at 37° C. Half of the medium was then exchanged by fresh TCM supplemented with 80 U/ml IL-2 and incubating was continued for 4 days at 37° C. This stimulation cycle was performed for a total of three times. For the pMHC multimer readout using 8 different pMHC molecules per condition, a two-dimensional combinatorial coding approach was used as previously described (Andersen et al., 2012) with minor modifications encompassing coupling to 5 different fluorochromes. Finally, multimeric analyses were performed by staining the cells with Live/dead near IR dye (Invitrogen, Karlsruhe, Germany), CD8-FITC antibody clone SK1 (BD, Heidelberg, Germany) and fluorescent pMHC multimers. For analysis, a BD LSRII SORP cytometer equipped with appropriate lasers and filters was used. Peptide specific cells were calculated as percentage of total CD8+ cells. Evaluation of multimeric analysis was done using the FlowJo software (Tree Star, Oregon, USA). In vitro priming of specific multimer+CD8+ lymphocytes was detected by comparing to negative control stimulations.

Row | Substance | in vitro immunogenicity, wells
42 | 319 (SLYKGLLSV; listed as Homo sapiens) [compound 319] | ++ (20% - 49% = ++)
43 | 320 (LLWGNLPEI; listed as Homo sapiens) [compound 320] | ++ (20% - 49% = ++)
44 | 321 (KLLAVIHEL; listed as Homo sapiens) [compound 321] | ++ (20% - 49% = ++)
45 | 322 (TLTNIIHNL; listed as Homo sapiens) [compound 322] | ++ (20% - 49% = ++)
46 | 323 (ILVDWLVQV; listed as Homo sapiens) [compound 323] | ++ (20% - 49% = ++)
47 | 324 (LLYDAVHIV; listed as Homo sapiens) [compound 324] | ++ (20% - 49% = ++)
48 | 325 (FLFVDPELV; listed as Homo sapiens) [compound 325] | +++ (50% - 69% = +++)
49 | 326 (KLTDVGIATL; listed as Homo sapiens) [compound 326] | ++++ (≥70% = ++++)
50 | 327 (MLFGHPLLVSV; listed as Homo sapiens) [compound 327] | ++ (20% - 49% = ++)
51 | 328 (ILFPDIIARA; listed as Homo sapiens) [compound 328] | ++++ (≥70% = ++++)

same assay, conditions: HLA-A*02 restricted peptides; percentage of positive wells and donors (among evaluable)

Row | Substance | Wells positive [%]
52 | 1 (LLSGQLPTI; listed as Homo sapiens) [compound 1] | “+++” (50% - 69% = +++)
53 | 2 (LLSEETPSA; listed as Homo sapiens) [compound 2] | “+” (<20% = +)
54 | 3 (LTIDTQYYL; listed as Homo sapiens) [compound 3] | “+” (<20% = +)
55 | 5 (VLQGLTFTL; listed as Homo sapiens) [compound 5] | “+++” (50% - 69% = +++)
